System: heparan sulfate proteoglycan (HSPG) on HUVEC

Substance | amount of FGF-2 released from HSPG on HUVEC (FGF-2 ELISA of the supernatant, 4 °C)
GnT-VΔ73 | GnT-VΔ73 and KRKRKK peptide released FGF-2
GnT-VΔ188 | Like GnT-VΔ73, also GnT-VΔ188 and GnT-VΔ233 released FGF-2

Reference: US20050148516
